In US20150025225A1 (SHIONOGI, published 2015):
Substitutions are numbered along the chain they refer to. Values belong to the binder of their own block, whether it stands above or below them.

What was measured:
[1] = target: T1, cynomolgus monkey EL-C2 tag (cynomolgus monkey, UniProt Q9Y5X9 21-500 (human entry), limits assumed); assay: ELISA-type titration, A450 against antibody concentration; protocol not described in the text
T1 construct: used as heparin extract of transfected HEK293F cells; also called cynomolgus EL
T1 chain: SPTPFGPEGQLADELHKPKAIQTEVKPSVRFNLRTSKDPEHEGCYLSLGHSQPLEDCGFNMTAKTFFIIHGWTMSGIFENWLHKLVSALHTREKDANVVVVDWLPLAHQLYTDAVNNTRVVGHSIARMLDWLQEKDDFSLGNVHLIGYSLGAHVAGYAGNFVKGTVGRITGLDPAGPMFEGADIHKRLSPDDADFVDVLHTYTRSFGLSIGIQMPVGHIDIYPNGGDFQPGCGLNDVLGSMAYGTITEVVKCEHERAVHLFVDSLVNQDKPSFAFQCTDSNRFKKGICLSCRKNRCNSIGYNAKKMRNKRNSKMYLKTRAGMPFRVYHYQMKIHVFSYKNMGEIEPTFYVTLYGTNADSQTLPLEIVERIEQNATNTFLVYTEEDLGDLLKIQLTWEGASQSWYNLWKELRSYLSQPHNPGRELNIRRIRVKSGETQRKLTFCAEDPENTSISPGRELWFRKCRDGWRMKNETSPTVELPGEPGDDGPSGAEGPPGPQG

[2] = target: T2, Baboon EL-C2 tag (baboon, UniProt Q9Y5X9 21-500 (human entry), limits assumed); assay: as above
T2 construct: used as heparin extract of transfected HEK293F cells; also called baboon EL heparin extract
T2 chain: T1 chain with A12E, G141E

[3] = target: T3, mouse EL-C2 tag (mouse, UniProt Q9WVG5 21-500); assay: as above
T3 construct: used as heparin extract of transfected HEK293F cells
T3 sequence: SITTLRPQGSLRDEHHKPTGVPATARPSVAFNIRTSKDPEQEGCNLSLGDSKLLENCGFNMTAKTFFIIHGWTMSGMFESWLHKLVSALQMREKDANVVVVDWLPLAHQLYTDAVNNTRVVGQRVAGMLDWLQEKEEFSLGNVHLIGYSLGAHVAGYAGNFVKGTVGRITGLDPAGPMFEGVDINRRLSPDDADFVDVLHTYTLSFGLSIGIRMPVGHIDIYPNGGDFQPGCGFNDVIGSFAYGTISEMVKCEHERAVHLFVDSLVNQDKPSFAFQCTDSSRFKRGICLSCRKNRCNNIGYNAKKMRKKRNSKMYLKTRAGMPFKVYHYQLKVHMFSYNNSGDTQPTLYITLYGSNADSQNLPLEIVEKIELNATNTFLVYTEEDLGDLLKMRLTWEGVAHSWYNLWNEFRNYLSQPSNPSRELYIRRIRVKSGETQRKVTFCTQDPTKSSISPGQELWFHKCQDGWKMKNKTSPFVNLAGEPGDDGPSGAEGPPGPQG

[4] = target: T4, human EL-C2 tag (human, UniProt Q9Y5X9 21-500); assay: cell-based or functional assay
T4 sequence: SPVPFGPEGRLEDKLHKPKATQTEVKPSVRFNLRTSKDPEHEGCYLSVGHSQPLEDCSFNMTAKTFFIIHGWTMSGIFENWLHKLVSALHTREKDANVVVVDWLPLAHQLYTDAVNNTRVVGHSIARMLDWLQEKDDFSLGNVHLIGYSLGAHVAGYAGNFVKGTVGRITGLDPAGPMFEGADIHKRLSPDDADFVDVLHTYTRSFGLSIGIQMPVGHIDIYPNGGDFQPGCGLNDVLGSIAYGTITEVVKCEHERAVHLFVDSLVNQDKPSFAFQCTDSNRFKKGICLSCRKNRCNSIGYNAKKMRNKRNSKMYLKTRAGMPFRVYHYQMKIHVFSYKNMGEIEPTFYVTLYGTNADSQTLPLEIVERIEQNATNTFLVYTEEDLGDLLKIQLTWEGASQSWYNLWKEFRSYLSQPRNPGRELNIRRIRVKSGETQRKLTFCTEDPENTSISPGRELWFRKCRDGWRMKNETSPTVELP

[5] = target: T5, human EL-411-459 fragment (human); assay: sandwich ELISA: 12B10 (5 ug/mL) captured on anti-mouse IgG-Fc plate, serial dilutions of fragment lysate, detection with biotin anti-C2-tag Fab and HRP-streptavidin, A450
T5 construct: Used as HEK293 lysate
T5 chain: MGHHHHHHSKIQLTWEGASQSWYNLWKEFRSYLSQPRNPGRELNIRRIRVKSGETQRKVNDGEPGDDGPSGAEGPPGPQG
Experimental: (§1) Assay buffer containing 15 μl of 12B10 antibody (5 μg/mL) was added to immobilized plate of anti-mouse IgG-Fc antibody and incubated for 2 hr. […] After washing the wells three times with 90 μl of washing buffer, 15 μL of assay buffer containing biotin-labeled anti-C2-tag (Fab) antibody and HRP-labeled Streptavidin (Thermo scientific) were added to the wells and incubated at room temperature for 1 hr. After washing the wells three times with 90 μl of washing buffer, 15 μL of TMB+-Substrate-Chromogen (DAKO) was added and incubated at room temperature for 30 min. The reaction was stopped with adding 15 μL of 0.05M H₂SO₄ and then measured absorbance 450 nm.

[6] = target: T6, human EL-411-500 fragment (human); assay: as above
T6 construct: Used as HEK293 lysate
T6 chain: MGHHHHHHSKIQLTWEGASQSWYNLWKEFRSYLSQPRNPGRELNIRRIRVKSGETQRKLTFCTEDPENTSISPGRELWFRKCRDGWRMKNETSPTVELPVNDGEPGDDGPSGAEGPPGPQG
Experimental: as §1

[7] = target: T5, human EL-411-459 fragment; assay: sandwich ELISA with human EL fragment lysate, as Example 10

EC50 (read off the curve) [1]: ~0.007 µg/mL
EC50 (read off the curve) [2]: ~0.02 µg/mL
binding result [3]: no binding
IC50 of EL enzyme activity (NEFA release from HDL) [4]: 47 nM
binding result [5]: binds
binding result [6]: binds
B1: 12B10 antibody (antibody, IgG2a, V domains shown)
VH: QVTLKESGPGILKPSQTLSLTCSFSGFSLSTSGMGVGWIRQPSGKGLEWLAHIWWNDEKYYNPSLKSQLTISKDTSRNQVFLKITSVDTADTATYYCARSYDGSPFPSWGQGTLVTVSA
VL: DIQMTQSPSSLSASLGGKVTITCKASQDINKYIAWFQHKPGKGPRLLMAYPFTLQPGIPSRFSGNGSGRDYSFSISNLEPEDIATYYCLQYDNLLWTFGGGTRLEIK

binding result [7]: binds
B2: 47B2 antibody (antibody, IgG2a, V domains shown)
VH: QVALKESGPGILQPSQTLSLTCSFSGFSLSTSGMGVGWIRQPSGKGLEWLAHIWWHGNKYYSTGLKSRLTISKDTSNNQVFLKIASVDTADTATYYCARISAGYPLDYWGQGTSVTVSS
VL: DIQMTQSPSSLSASLGGKVTITCKASQDINKYIVWYQHKPGKGPRLLIHYTSTLQPGFPSRFSGSGSGRDYSLSITNLEPEDIATYYCLQYDNLLWTFGGGTKLEIK
